Data on one substance can be found in patent US20030022827A1.

Test [1] deals with IL-10R1 (human) (UniProt Q13651). Kind of test: cell-based or functional assay.
Test [2] deals with IL-10R subtype I, which consists of an IL-10R1 and an IL-10R2 (human) (UniProt Q13651). The test can be described thus: cell-based or functional assay.
Chain of IL-10R subtype I, which consists of an IL-10R1 and an IL-10R2 (human) (Q13651 22-578, chain 1 of 2): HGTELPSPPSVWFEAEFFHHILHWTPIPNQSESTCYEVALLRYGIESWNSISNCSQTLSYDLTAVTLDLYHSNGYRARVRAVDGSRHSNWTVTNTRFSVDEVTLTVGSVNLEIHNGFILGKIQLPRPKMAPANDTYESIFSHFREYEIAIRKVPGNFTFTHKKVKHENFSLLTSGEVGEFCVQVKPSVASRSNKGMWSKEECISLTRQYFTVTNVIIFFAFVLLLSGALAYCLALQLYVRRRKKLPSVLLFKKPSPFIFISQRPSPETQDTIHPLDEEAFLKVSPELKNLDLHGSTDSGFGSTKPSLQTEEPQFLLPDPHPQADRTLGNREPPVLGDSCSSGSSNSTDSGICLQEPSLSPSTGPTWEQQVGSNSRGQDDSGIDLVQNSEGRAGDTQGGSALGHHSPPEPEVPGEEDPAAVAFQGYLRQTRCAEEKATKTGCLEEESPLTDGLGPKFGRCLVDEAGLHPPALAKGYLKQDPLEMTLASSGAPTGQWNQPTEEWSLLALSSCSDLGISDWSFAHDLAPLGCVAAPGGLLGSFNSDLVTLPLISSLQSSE
Chain of IL-10R subtype I, which consists of an IL-10R1 and an IL-10R2 (human) (Q08334 20-325, chain 2 of 2, further chain): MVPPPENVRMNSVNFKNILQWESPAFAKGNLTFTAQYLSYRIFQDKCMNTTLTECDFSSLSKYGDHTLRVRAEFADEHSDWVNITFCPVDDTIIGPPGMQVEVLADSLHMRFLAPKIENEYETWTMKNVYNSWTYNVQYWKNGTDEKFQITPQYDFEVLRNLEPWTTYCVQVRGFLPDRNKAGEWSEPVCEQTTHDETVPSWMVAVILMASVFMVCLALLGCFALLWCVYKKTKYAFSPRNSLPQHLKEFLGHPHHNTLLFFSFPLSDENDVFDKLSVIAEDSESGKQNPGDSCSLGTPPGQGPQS

Chain of IL-10R1 (human) (Q13651 22-578): as the sequence (Q13651 22-578, chain 1 of 2) above

On to “Epstein-Barr virus-coded protein BCRF1 (from UniProt P03180 24-170) (ligand)”, for which, in test [1], the inhibition of LPS-induced TNF-α release of PBMC (ELISA of supernatant) worked out at 3 ng/mL. Also, the expression of the low-affine IgG receptor CD16 on monocytes (flow cytometry) in test [2] lay within 30 to 100 ng/mL.
